This note sets out measurements from the supplement of paper PMC9112550, “Optimization of the antimicrobial peptide Bac7 by deep mutational scanning” (BMC Biology, 2022).

The data set deals with Escherichia coli TOP10. The data set is described as follows: shrunken log2 fold change of peptide-encoding DNA abundance (4.5 h post-induction vs induction); higher = less antimicrobial activity (less host growth inhibition). To be noted: time post-induction: 4.5 h; library: site-saturation at positions 5, 18, 19, 20.
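Also: peptides expressed intracellularly from a pBAD plasmid library in pooled LB shake-flask culture, induced with 0.3% L-arabinose, DNA abundance read by NGS, three biological replicates, DESeq2 with apeglm shrinkage.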

In the case of RRIRWRPPRLPRPRPRPRCCPRP, the “shrunken log2 fold change” value is 0.448.
For the sequence RRIRLRPPRLPRPRPRPVRHPRP, the “shrunken log2 fold change” value is 0.19.
In the case of RRIRKRPPRLPRPRPRPDVYPRP, the “shrunken log2 fold change” value is -0.0383.
As for RRIRDRPPRLPRPRPRPFNAPRP, the “shrunken log2 fold change” value is -0.0419.
As for RRIRHRPPRLPRPRPRPSKKPRP, the “shrunken log2 fold change” value was found to be 0.0943.
To RRIRRRPPRLPRPRPRPDRDPRP belongs 0.15; to RRIRCRPPRLPRPRPRPLKSPRP, -0.154; to RRIRKRPPRLPRPRPRPGFMPRP, 0.184.
With RRIRARPPRLPRPRPRPAMFPRP, the “shrunken log2 fold change” value was -0.0337.
On to RRIRGRPPRLPRPRPRPQHGPRP, for which the “shrunken log2 fold change” value came out at 0.137.
With RRIRHRPPRLPRPRPRPNETPRP the figure was 0.00408; with RRIRRRPPRLPRPRPRPTFHPRP, 0.0529.
Consider RRIRWRPPRLPRPRPRPIVSPRP, for which the “shrunken log2 fold change” value is -0.000687.
For RRIRARPPRLPRPRPRPSINPRP, the “shrunken log2 fold change” value was -0.308.
As to RRIRYRPPRLPRPRPRPFMKPRP, the “shrunken log2 fold change” value is -0.272.
With RRIRMRPPRLPRPRPRPHLKPRP the figure was 0.253; with RRIRTRPPRLPRPRPRPVICPRP, -0.157.
With RRIRLRPPRLPRPRPRPTLNPRP, the “shrunken log2 fold change” value was -0.0428.
With RRIRLRPPRLPRPRPRPAQEPRP the figure was -0.023; with RRIRVRPPRLPRPRPRPMVDPRP, -0.0954; with RRIRKRPPRLPRPRPRPAGYPRP, 0.0743.
Turning to RRIRPRPPRLPRPRPRPSYEPRP, the “shrunken log2 fold change” value is -0.178.
RRIRRRPPRLPRPRPRPMEDPRP: the “shrunken log2 fold change” value was 0.0525.
On to RRIRNRPPRLPRPRPRPVTWPRP, for which the “shrunken log2 fold change” value is -0.0637.
With RRIRIRPPRLPRPRPRPRSQPRP, the “shrunken log2 fold change” value stood at 0.085.
For the sequence RRIRQRPPRLPRPRPRPAMGPRP, the “shrunken log2 fold change” value was found to be 0.127.
To RRIRPRPPRLPRPRPRPHCKPRP belongs -0.633.
With RRIRDRPPRLPRPRPRPMSLPRP, the “shrunken log2 fold change” value was -0.558.
With RRIRRRPPRLPRPRPRPTMLPRP the figure was 0.0234; with RRIRCRPPRLPRPRPRPPRVPRP, 0.935; with RRIRLRPPRLPRPRPRPKKFPRP, -0.322.
To RRIRPRPPRLPRPRPRPVTKPRP belongs 0.138; to RRIRWRPPRLPRPRPRPWPVPRP, 0.502; to RRIRIRPPRLPRPRPRPPHMPRP, -0.416.
As for RRIRKRPPRLPRPRPRPCEQPRP, the “shrunken log2 fold change” value amounted to 0.324.
To RRIRLRPPRLPRPRPRPAIHPRP belongs -0.192.
Regarding RRIRVRPPRLPRPRPRPHDGPRP, the “shrunken log2 fold change” value is 0.0377.
With RRIRNRPPRLPRPRPRPKCEPRP, the “shrunken log2 fold change” value is -0.0549.
Regarding RRIRDRPPRLPRPRPRPCVGPRP, the “shrunken log2 fold change” value was 0.97.
For RRIRRRPPRLPRPRPRPVFSPRP, the “shrunken log2 fold change” value is -0.0171.
Regarding RRIRSRPPRLPRPRPRPKFHPRP, the “shrunken log2 fold change” value was -0.441.
As for RRIRHRPPRLPRPRPRPCENPRP, the “shrunken log2 fold change” value is -0.0381.
Take RRIRYRPPRLPRPRPRPRPLPRP: the “shrunken log2 fold change” value was -0.3.
Regarding RRIRSRPPRLPRPRPRPVGKPRP, the “shrunken log2 fold change” value was -0.0806.
With RRIRVRPPRLPRPRPRPDDHPRP, the “shrunken log2 fold change” value was -0.106.
In the case of RRIRQRPPRLPRPRPRPPMAPRP, the “shrunken log2 fold change” value turned out to be 0.0822.
Turning to RRIRIRPPRLPRPRPRPAPWPRP, the “shrunken log2 fold change” value turned out to be 0.0917.
Regarding RRIRLRPPRLPRPRPRPYPQPRP, the “shrunken log2 fold change” value is -0.364.
For the sequence RRIRIRPPRLPRPRPRPREHPRP, the “shrunken log2 fold change” value is -0.393.
With RRIRVRPPRLPRPRPRPGRDPRP the figure was 0.175; with RRIRARPPRLPRPRPRPWQTPRP, 0.0127.
In the case of RRIRFRPPRLPRPRPRPQNHPRP, the “shrunken log2 fold change” value was -0.619.
As for RRIRCRPPRLPRPRPRPHAMPRP, the “shrunken log2 fold change” value is -0.145.
For RRIRFRPPRLPRPRPRPGMFPRP, the “shrunken log2 fold change” value was 0.0382.
Regarding RRIRMRPPRLPRPRPRPYRPPRP, the “shrunken log2 fold change” value was -0.117.
Turning to RRIRLRPPRLPRPRPRPPTTPRP, the “shrunken log2 fold change” value was 0.449.
For the sequence RRIRGRPPRLPRPRPRPLHNPRP, the “shrunken log2 fold change” value was found to be 0.249.
Regarding RRIRGRPPRLPRPRPRPVKVPRP, the “shrunken log2 fold change” value amounted to 0.425.
Regarding RRIRARPPRLPRPRPRPDWEPRP, the “shrunken log2 fold change” value worked out at 0.334.
Turning to RRIRWRPPRLPRPRPRPINDPRP, the “shrunken log2 fold change” value is -0.222.
To RRIRGRPPRLPRPRPRPAPPPRP belongs 1.07.
For RRIRVRPPRLPRPRPRPGIMPRP, the “shrunken log2 fold change” value was -0.000355.
As to RRIRVRPPRLPRPRPRPTIEPRP, the “shrunken log2 fold change” value was 0.061.
On to RRIRKRPPRLPRPRPRPGYDPRP, for which the “shrunken log2 fold change” value is -0.0159.
As for RRIRKRPPRLPRPRPRPQLPPRP, the “shrunken log2 fold change” value is -0.105.
With RRIRVRPPRLPRPRPRPKDVPRP the figure was 0.00902.
For the sequence RRIRRRPPRLPRPRPRPMTEPRP, the “shrunken log2 fold change” value turned out to be 0.0575.
Consider RRIRGRPPRLPRPRPRPRFIPRP, for which the “shrunken log2 fold change” value amounted to 0.123.
RRIRPRPPRLPRPRPRPAWYPRP: the “shrunken log2 fold change” value stood at 0.0306.
To RRIRTRPPRLPRPRPRPHNTPRP belongs -0.346; to RRIRGRPPRLPRPRPRPGDGPRP, 0.895; to RRIRLRPPRLPRPRPRPSQKPRP, 0.00285.
Take RRIRSRPPRLPRPRPRPQQEPRP: the “shrunken log2 fold change” value was -0.0806.
As to RRIRKRPPRLPRPRPRPESGPRP, the “shrunken log2 fold change” value amounted to 0.918.
To RRIRNRPPRLPRPRPRPRRLPRP belongs 2.6; to RRIRVRPPRLPRPRPRPHYQPRP, -0.213; to RRIRERPPRLPRPRPRPTSCPRP, -0.178.
Regarding RRIRVRPPRLPRPRPRPQMDPRP, the “shrunken log2 fold change” value was -0.297.
As to RRIRMRPPRLPRPRPRPIPRPRP, the “shrunken log2 fold change” value was 0.634.
RRIRARPPRLPRPRPRPIYNPRP: the “shrunken log2 fold change” value was -0.668.
Turning to RRIRLRPPRLPRPRPRPCPDPRP, the “shrunken log2 fold change” value is -0.136.
In the case of RRIRRRPPRLPRPRPRPTACPRP, the “shrunken log2 fold change” value amounted to 0.636.
Take RRIRRRPPRLPRPRPRPNARPRP: the “shrunken log2 fold change” value came out at 0.35.
RRIRMRPPRLPRPRPRPNYAPRP: the “shrunken log2 fold change” value is -0.193.
Take RRIRTRPPRLPRPRPRPRPNPRP: the “shrunken log2 fold change” value was determined as 0.267.
RRIRMRPPRLPRPRPRPYIYPRP: the “shrunken log2 fold change” value was -0.384.
Turning to RRIRERPPRLPRPRPRPWNMPRP, the “shrunken log2 fold change” value is -0.0894.
As to RRIRARPPRLPRPRPRPIQEPRP, the “shrunken log2 fold change” value was found to be 0.116.
Consider RRIRMRPPRLPRPRPRPYHLPRP, for which the “shrunken log2 fold change” value came out at 0.00229.
Regarding RRIRARPPRLPRPRPRPQPYPRP, the “shrunken log2 fold change” value is -0.3.
With RRIRERPPRLPRPRPRPFMGPRP the figure was -0.0195.
Regarding RRIRMRPPRLPRPRPRPWDSPRP, the “shrunken log2 fold change” value is -0.152.
In the case of RRIRFRPPRLPRPRPRPQHQPRP, the “shrunken log2 fold change” value was -0.185.
For the sequence RRIRRRPPRLPRPRPRPGYWPRP, the “shrunken log2 fold change” value was determined as 0.535.
RRIRRRPPRLPRPRPRPRGGPRP: the “shrunken log2 fold change” value was found to be 0.509.
Consider RRIRIRPPRLPRPRPRPTPFPRP, for which the “shrunken log2 fold change” value is -0.133.
In the case of RRIRRRPPRLPRPRPRPLGYPRP, the “shrunken log2 fold change” value worked out at 0.26.
Take RRIRRRPPRLPRPRPRPYRRPRP: the “shrunken log2 fold change” value amounted to 0.0385.
In the case of RRIRYRPPRLPRPRPRPAAIPRP, the “shrunken log2 fold change” value was -0.092.
As to RRIRYRPPRLPRPRPRPNCNPRP, the “shrunken log2 fold change” value was -0.962.
With RRIRDRPPRLPRPRPRPREDPRP, the “shrunken log2 fold change” value was found to be 0.293.
RRIRSRPPRLPRPRPRPMQQPRP: the “shrunken log2 fold change” value stood at 0.178.
To RRIRPRPPRLPRPRPRPKQGPRP belongs 0.0197; to RRIRQRPPRLPRPRPRPATDPRP, -0.0316.
To RRIRQRPPRLPRPRPRPDKGPRP belongs -0.285; to RRIRNRPPRLPRPRPRPQKYPRP, 0.125; to RRIRTRPPRLPRPRPRPKYMPRP, -0.15.
With RRIRRRPPRLPRPRPRPCYIPRP, the “shrunken log2 fold change” value is -0.205.
With RRIRMRPPRLPRPRPRPHTTPRP, the “shrunken log2 fold change” value is -0.0908.
On to RRIRKRPPRLPRPRPRPPQQPRP, for which the “shrunken log2 fold change” value amounted to 0.346.
Regarding RRIRMRPPRLPRPRPRPSCLPRP, the “shrunken log2 fold change” value was -0.0926.
Consider RRIRNRPPRLPRPRPRPFKNPRP, for which the “shrunken log2 fold change” value amounted to 0.0633.
As for RRIRFRPPRLPRPRPRPNYHPRP, the “shrunken log2 fold change” value was -0.758.
For RRIRWRPPRLPRPRPRPMNQPRP, the “shrunken log2 fold change” value was -0.33.
On to RRIRDRPPRLPRPRPRPNLGPRP, for which the “shrunken log2 fold change” value is -0.00884.
Turning to RRIRSRPPRLPRPRPRPVQFPRP, the “shrunken log2 fold change” value stood at 0.11.
RRIRIRPPRLPRPRPRPGPSPRP: the “shrunken log2 fold change” value stood at 0.108.
Regarding RRIRCRPPRLPRPRPRPCLYPRP, the “shrunken log2 fold change” value was -0.117.
As to RRIRGRPPRLPRPRPRPCTDPRP, the “shrunken log2 fold change” value amounted to 0.522.
With RRIRCRPPRLPRPRPRPNMLPRP the figure was -0.398.
For the sequence RRIRSRPPRLPRPRPRPIKRPRP, the “shrunken log2 fold change” value is 0.0449.
On to RRIRPRPPRLPRPRPRPRRDPRP, for which the “shrunken log2 fold change” value came to 0.302.
With RRIRPRPPRLPRPRPRPFANPRP the figure was -0.0686.
RRIRCRPPRLPRPRPRPMIGPRP: the “shrunken log2 fold change” value was -0.0953.
Take RRIRTRPPRLPRPRPRPDGCPRP: the “shrunken log2 fold change” value came to 0.127.
